From patent US20200164038A1, “MODIFIED NUCLEOSIDE, NUCLEOTIDE, AND NUCLEIC ACID COMPOSITIONS” (ModernaTX, Inc., priority 2011, published 2020)

Columns and labels:
neutrophil count = experiment: Intravenous administration of lipoplexed G-CSF mRNA, neutrophil count; format: in vivo; conditions: mice IV, 50 ug RNA in 10% lipoplex at days 0, 2 and 4; day 5
Protocol: Neutrophils were measured at days 1, 5 and 8. Controls included non-specific mammalian RNA or the formulation buffer alone (F.Buffer). The mice were bled at days 1, 5 and 8 to determine the effect of mRNA-encoded human G-CSF to increase neutrophil count. The dosing regimen is shown in Table 64 as are the resulting neutrophil counts (thousands/uL; K/uL).

[1] = Non-human primate serum chemistry: alanine transaminase (ALT), aspartate transaminase (AST); format: in vivo, cynomolgus monkey; conditions: for Aspartate Transaminase (AST): Female NHP; for Alanine Transaminase (ALT): Male NHP
[2] = LNP in vivo study IV, IM, SC, serum G-CSF or EPO by ELISA; conditions: rats, 0.05 mg/kg
Protocol: (§1) Formulations, listed in Table 31, were characterized by particle size, zeta potential, and encapsulation.
LNP formulations, shown in Table 31 (above), were administered to rats (n=5) intravenously (IV), intramuscularly (IM) or subcutaneously (SC) at a single modified mRNA dose of 0.05 mg/kg. A control group of rats (n=4) was untreated. The rats were bled at 2 hours, 8 hours, 24 hours, 48 hours and 96 hours and after they were administered with G-CSF or EPO modified mRNA formulations to determine protein expression using ELISA. The rats administered EPO modified mRNA intravenously were also bled at 7 days.

[3] = Non-human primate in vivo study, serum G-CSF or EPO by ELISA; set-up: species or system cynomolgus monkey; conditions: for Female NHP Serum Concentration / Male NHP Serum Concentration: G-CSF LNP, 0.05 mg/kg IV
Protocol: as §1
LNP formulations, shown in Table 31 (above), were administered to non-human primates (NHP) (cynomolgus monkey) (n=2) as a bolus intravenous injection (IV) over approximately 30 seconds using a hypodermic needle, which may be attached to a syringe/abbocath or butterfly if needed. The NHP were administered a single modified mRNA IV dose of 0.05 mg/kg of EPO or G-CSF or 0.005 mg/kg of EPO in a dose volume of 0.5 mL/kg. The NHPs were bled 5-6 days before dosing with the modified mRNA LNP formulations to determine protein expression in the serum and a baseline complete blood count. After administration with the modified mRNA formulation the NHP were bled at 8, 24, 48 and 72 hours to determined protein expression. At 24 and 72 hours after administration the complete blood count of the NHP was also determined. Protein expression of G-CSF and EPO was determined by ELISA. Urine from the NHPs was collected over the course of the entire experiment and analyzed to evaluate clinical safety. Samples were collected from the NHPs after they were administered with G-CSF or EPO modified mRNA formulations to determine protein expression using ELISA. Clinical chemistry, hematology, urinalysis and cytokines of the non-human primates were also analyzed.

B1: G-CSF: human G-CSF mRNA, SEQ ID NO: 6, polyA about 160 nt, Cap1, fully modified with 5-methylcytosine and pseudouridine (nucleic acid, listed as Homo sapiens)
chain: GGGAAAUAAGAGAGAAAAGAAGAGUAAGAAGAAAUAUAAGAGCCACCAUGGCCGGUCCCGCGACCCAAAGCCCCAUGAAACUUAUGGCCCUGCAGUUGCUGCUUUGGCACUCGGCCCUCUGGACAGUCCAAGAAGCGACUCCUCUCGGACCUGCCUCAUCGUUGCCGCAGUCAUUCCUUUUGAAGUGUCUGGAGCAGGUGCGAAAGAUUCAGGGCGAUGGAGCCGCACUCCAAGAGAAGCUCUGCGCGACAUACAAACUUUGCCAUCCCGAGGAGCUCGUACUGCUCGGGCACAGCUUGGGGAUUCCCUGGGCUCCUCUCUCGUCCUGUCCGUCGCAGGCUUUGCAGUUGGCAGGGUGCCUUUCCCAGCUCCACUCCGGUUUGUUCUUGUAUCAGGGACUGCUGCAAGCCCUUGAGGGAAUCUCGCCAGAAUUGGGCCCGACGCUGGACACGUUGCAGCUCGACGUGGCGGAUUUCGCAACAACCAUCUGGCAGCAGAUGGAGGAACUGGGGAUGGCACCCGCGCUGCAGCCCACGCAGGGGGCAAUGCCGGCCUUUGCGUCCGCGUUUCAGCGCAGGGCGGGUGGAGUCCUCGUAGCGAGCCACCUUCAAUCAUUUUUGGAAGUCUCGUACCGGGUGCUGAGACAUCUUGCGCAGCCGUGAAGCGCUGCCUUCUGCGGGGCUUGCCUUCUGGCCAUGCCCUUCUUCUCUCCCUUGCACCUGUACCUCUUGGUCUUUGAAUAAAGCCUGAGUAGGAAG
modifications: Cap1; polyA; 5-methylcytosine, pseudouridine
- increase in neutrophil count above control (neutrophil count): four to five fold increase
- Aspartate Transaminase (AST) ([1]; 0.005 mg/kg, 2 days): 34 U/L
- Aspartate Transaminase (AST) ([1]; 0.005 mg/kg, 4 days): 36 U/L
- Aspartate Transaminase (AST) ([1]; 0.005 mg/kg, 7 days): 31 U/L
- Aspartate Transaminase (AST) ([1]; 0.005 mg/kg, 14 days): 20 U/L
- Aspartate Transaminase (AST) ([1]; 0.005 mg/kg, Pre-dose): 54 U/L
- Aspartate Transaminase (AST) ([1]; 0.05 mg/kg, 1 days): 34 U/L
- Aspartate Transaminase (AST) ([1]; 0.05 mg/kg, 4 days): 42 U/L
- Aspartate Transaminase (AST) ([1]; 0.05 mg/kg, 7 days): 52 U/L
- Aspartate Transaminase (AST) ([1]; 0.05 mg/kg, 14 days): 20 U/L
- Aspartate Transaminase (AST) ([1]; 0.05 mg/kg, Pre-dose): 33 U/L
- Aspartate Transaminase (AST) ([1]; 0.5 mg/kg, 2 days): 794 U/L
- Aspartate Transaminase (AST) ([1]; 0.5 mg/kg, 4 days): 63 U/L
- Aspartate Transaminase (AST) ([1]; 0.5 mg/kg, 7 days): 68 U/L
- Aspartate Transaminase (AST) ([1]; 0.5 mg/kg, 14 days): 67 U/L
- Aspartate Transaminase (AST) ([1]; 0.5 mg/kg, Pre-dose): 47 U/L
- Alanine Transaminase (ALT) ([1]; 0.005 mg/kg, 2 days): 39 U/L
- Alanine Transaminase (ALT) ([1]; 0.005 mg/kg, 4 days): 48 U/L
- Alanine Transaminase (ALT) ([1]; 0.005 mg/kg, 7 days): 29 U/L
- Alanine Transaminase (ALT) ([1]; 0.005 mg/kg, 14 days): 44 U/L
- Alanine Transaminase (ALT) ([1]; 0.005 mg/kg, Pre-dose): 43 U/L
- Alanine Transaminase (ALT) ([1]; 0.05 mg/kg, 2 days): 82 U/L
- Alanine Transaminase (ALT) ([1]; 0.05 mg/kg, 4 days): 88 U/L
- Alanine Transaminase (ALT) ([1]; 0.05 mg/kg, 7 days): 73 U/L
- Alanine Transaminase (ALT) ([1]; 0.05 mg/kg, 14 days): 50 U/L
- Alanine Transaminase (ALT) ([1]; 0.05 mg/kg, Pre-dose): 58 U/L
- Alanine Transaminase (ALT) ([1]; 0.5 mg/kg, 2 days): 63 U/L
- Alanine Transaminase (ALT) ([1]; 0.5 mg/kg, 4 days): 70 U/L
- Alanine Transaminase (ALT) ([1]; 0.5 mg/kg, 7 days): 41 U/L
- Alanine Transaminase (ALT) ([1]; 0.5 mg/kg, 14 days): 43 U/L
- Alanine Transaminase (ALT) ([1]; 0.5 mg/kg, Pre-dose): 29 U/L
- time out to which protein expression was detectable ([2]; intravenous): 7 days
- time out to which protein expression was detectable ([2]; subcutaneous and intramuscular): at least 8 hours
- Female NHP Serum Concentration ([3]; 8 hours): 3289 pg/mL
- Male NHP Serum Concentration ([3]; 8 hours): 1722 pg/mL
- Female NHP Serum Concentration ([3]; 48 hours): 0 pg/mL
- Male NHP Serum Concentration ([3]; 48 hours): 0 pg/mL
- Female NHP Serum Concentration ([3]; 72 hours): 0 pg/mL
- Male NHP Serum Concentration ([3]; 72 hours): 0 pg/mL
- Female NHP Serum Concentration ([3]; Pre-bleed): 0 pg/mL
- Male NHP Serum Concentration ([3]; Pre-bleed): 0 pg/mL
- time out to which protein expression was detectable ([3]; NHP IV, LNP, 0.05 mg/kg): 24 h
